Target: streptavidin (UniProt P22629)
Experiment: polyaniline polymeric wire biosensor, streptavidin on NC membrane, pulse mode voltammetry

biotin conjugate goat anti-mouse IgG (whole molecule), conjugated with magnetic composite Fe2O3/polyaniline particles (antibody)
resistance: 4.3 kΩ

From patent US20110171749A1
